# Experimental data taken from article PMC4534193, “Binding of the Lactococcal Drug Dependent Transcriptional Regulator LmrR to Its Ligands and Responsive Promoter Regions” (PLoS ONE, 2015).
# How the values were obtained:
# [1] = target: T1, LmrR-Strep (Lactococcus lactis) (UniProt A2RI36); test: MST; settings: MST: 20 mM Tris-HCl pH 8.0, 1 mM EDTA, 50 nM Cy5-DNA, 30 min incubation at 30 C; 30% LED, 40% laser power (30% laser for PlmrR); Hill fit
# T1 sequence: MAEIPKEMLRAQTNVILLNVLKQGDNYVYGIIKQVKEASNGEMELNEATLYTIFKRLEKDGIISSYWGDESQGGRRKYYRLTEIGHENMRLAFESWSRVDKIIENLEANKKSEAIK
# [2] = tested on: LmrR-Strep (Lactococcus lactis); test: MST; settings: apparent Kd, MST: 20 mM Tris-HCl pH 8.0, 1 mM EDTA, 50 nM Cy5-DNA, 30 min incubation at 30 C, 30% LED, 40% laser power (30% laser for PlmrR), Hill fit
substance,measurement,setting,value
CTCCTTGTTTTAGGACATTGAGCAAAATTACATTGGTTTGGGCTCGTAACATTTCTTTTGGTATTTCTGCCATTCTTTTTCCTTTCTATCATTTTAAACAAAGTATATTATACTTCACATTACTATGTAAGTCAAGGTACTTAAACTATTTATATAATATTTTATTTTTGACGACTTTCTACTATATAAGATAAGAAAAAATCATCTCCG (double strand) [PlmrR (lmrR promoter/operator region)],Kd,[1],1400 nM
PlmrCD -62bp,Kd,[2]; no riboflavin,62 nM
TTCTAGAGTTAAATAATGTAAACTACTTTACATTAAATTGAATTTTCAATTTCATTTTACTTCAAAATAATTTCAATAAATTTTTTGAGAAGATAATTATAACATTATTTTTTTTAGTAAACAAGCATTAATTGTTAATGCTGTTAAAGATTACAATAGTTAGTTTCATAAATGGTAAACTAACAAAAATATTGTAACGCTTTTTAAAGTTTAAGTCAACGATTTACGACGTTATTTGTATCTTCTTATGTTTTTATAAATTTAGAATTTAAAGTAAGGAATGAATCG (double strand) [PlmrCD -62bp],Kd,[1],62 nM
PlmrR (lmrR promoter/operator region),Kd,"[2]; 50 uM riboflavin, 30% laser power",5120 nM
same,Kd,"[2]; no riboflavin, Hill coefficient 2.43 +/- 0.19, 30% laser power",1400 nM
PlmrCD (lmrCD promoter/operator region),Kd,[2]; 50 uM riboflavin,195 nM
same,Kd,"[2]; no riboflavin, Hill coefficient 1.78 +/- 0.17",82.1 nM
ACTACTTTACATTAAATTGAATTTTCAATTTCATTTTACTTCAAAATAATTTCAATAAATTTTTTGAGAAGATAATTATAACATTATTTTTTTTAGTAAACAAGCATTAATTGTTAATGCTGTTAAAGATTACAATAGTTAGTTTCATAAATGGTAAACTAACAAAAATATTGTAACGCTTTTTAAAGTTTAAGTCAACGATTTACGACGTTATTTGTATCTTCTTATGTTTTTATAAATTTAGAATTTAAAGTAAGGAATGAATCG (double strand) [PlmrCD no PadR (half of PadR motif deleted)],binding,[1],no binding
